Consider eight variants from FireProtDB (doi:10.1021/bi00072a011).

The labels stand for the following.
B1: Tryptophan synthase alpha chain, P00929 (parent)
chain: MERYENLFAQLNDRREGAFVPFVTLGDPGIEQSLKIIDTLIDAGADALELGVPFSDPLADGPTIQNANLRAFAAGVTPAQCFEMLALIREKHPTIPIGLLMYANLVFNNGIDAFYARCEQVGVDSVLVADVPVEESAPFRQAALRHNIAPIFICPPNADDDLLRQVASYGRGYTYLLSRSGVTGAENRGALPLHHLIEKLKEYHAAPALQGFGISSPEQVSAAVRAGAAGAISGSAIVKIIEKNLASPKQMLAELRSFVSAMKAASRA

In the data set the parent is B1. Conditions: Salmonella typhimurium (strain LT2 / SGSC1412 / ATCC 700720); pH 7.8; 25 °C; Urea; CD; Potassium phosphate 10 mM; transition: 3; structure 2WSY; whole UniProt chain shown.

Where “and” joins values, the source holds several entries; their conditions need not be identical. Equal values may be shown once.

In the case of L209V, the “ddG of mutation (higher = less stable)” value was 3.4 kcal/mol and 2 kcal/mol; the denaturant m value was 1.7 kcal/mol/M and 1.1 kcal/mol/M; the “denaturant midpoint (higher = more stable)” value (“denaturant midpoint” for short) is 2.3 M and 3.44 M; the unfolding free energy was 4 kcal/mol and 3.8 kcal/mol.

For Y175Q, the denaturant m value was 2.9 kcal/mol/M and 2.7 kcal/mol/M; the “denaturant midpoint” value was 2.05 M and 2.91 M; the unfolding free energy was 6 kcal/mol and 7.9 kcal/mol.

As to I232V, the “ddG of mutation (higher = less stable)” value was 3.9 kcal/mol and 1.5 kcal/mol; the denaturant m value was 1.5 kcal/mol/M and 1.3 kcal/mol/M; the “denaturant midpoint” value is 2.31 M and 3.28 M; the unfolding free energy was 3.5 kcal/mol and 4.3 kcal/mol.

As to A18V I232V, the denaturant m value was 2.1 kcal/mol/M and 1.8 kcal/mol/M; the “denaturant midpoint” value was 2.12 M and 3.73 M; the unfolding free energy is 4.4 kcal/mol and 6.8 kcal/mol.

As for A18V, the denaturant m value was found to be 1.5 kcal/mol/M; the “denaturant midpoint” value was 3.77 M and 2.24 M; the unfolding free energy was 5.8 kcal/mol and 3.3 kcal/mol.

As to A18G, the “ddG of mutation (higher = less stable)” value is 4.1 kcal/mol, the denaturant m value turned out to be 1.7 kcal/mol/M, the “denaturant midpoint” value was 1.88 M and the unfolding free energy was found to be 3.3 kcal/mol.

In the case of A18G I232V, the denaturant m value was 0.9 kcal/mol/M and 1.6 kcal/mol/M; the “denaturant midpoint” value was 2.08 M and 3.46 M; the unfolding free energy was 1.9 kcal/mol and 5.6 kcal/mol.

Turning to Y175Q L209V, the denaturant m value was 1.6 kcal/mol/M and 2.2 kcal/mol/M; the “denaturant midpoint” value is 2.23 M and 4.32 M; the unfolding free energy is 3.6 kcal/mol and 9.7 kcal/mol.
